Laboratory results: patent US20250236673A1 (Ablynx, published 2025)

Experiments:
human serum albumin [1] = biological target: T1, human serum albumin (human, UniProt P02768 25-609); experiment: SPR Biacore 8K+, HSA amine-coupled on C1 chip, ISVD analyte, 1:1 fit
T1 construct: Immobilised by amine coupling on a C1 chip; also called HSA

human serum albumin [2] = biological target: T1, human serum albumin; experiment: SPR on HSA (Example 2; method not restated, as Example 1)

T1 sequence (P02768 25-609 limits assumed): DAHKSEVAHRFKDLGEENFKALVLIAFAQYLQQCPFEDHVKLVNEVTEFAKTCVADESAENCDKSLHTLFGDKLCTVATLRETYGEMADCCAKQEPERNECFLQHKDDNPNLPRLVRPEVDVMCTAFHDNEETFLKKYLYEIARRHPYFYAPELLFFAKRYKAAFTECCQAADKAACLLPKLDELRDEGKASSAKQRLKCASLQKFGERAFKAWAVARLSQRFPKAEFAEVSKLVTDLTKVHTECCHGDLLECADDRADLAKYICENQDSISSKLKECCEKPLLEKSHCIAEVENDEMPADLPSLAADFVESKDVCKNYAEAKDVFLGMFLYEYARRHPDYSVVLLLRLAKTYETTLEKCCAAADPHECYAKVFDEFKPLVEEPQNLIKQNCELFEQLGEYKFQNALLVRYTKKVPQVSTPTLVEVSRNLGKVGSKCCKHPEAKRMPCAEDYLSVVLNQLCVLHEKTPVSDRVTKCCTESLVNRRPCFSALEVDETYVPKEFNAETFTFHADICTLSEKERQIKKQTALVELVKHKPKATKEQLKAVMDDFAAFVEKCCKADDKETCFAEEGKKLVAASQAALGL

| Kd (human serum albumin [1]) | koff (human serum albumin [1]) | kon (human serum albumin [1]) | Kd (human serum albumin [2]) | koff (human serum albumin [2]) | kon (human serum albumin [2]) | Binder |
| --- | --- | --- | --- | --- | --- | --- |
|  |  |  | 6.22 nM | 0.00231 s⁻¹ | 371000 M⁻¹ s⁻¹ | T039400040 (VHH, No lysine; also called HIS6-ENLYFQS-5GS-HSA006A06(K43R, K64R, K75R, K83R)) VHH: EVQLVESGGGVVQPGGSLRLSCAASGFTFRSFGMSWVRQAPGRGPEWVSSISGSGSDTLYADSVRGRFTISRDNSRNTLYLQMNSLRPEDTALYYCTIGGSLSRSSQGTLVTVSS |
| 1.35 nM | 0.00114 s⁻¹ | 839000 M⁻¹ s⁻¹ |  |  |  | T028501836 (VHH) VHH: EVQLVESGGGVVQPGGSLRLSCAASGFTFRSFGMSWVRQAPGKGPEWVSSISGSGSDTLYADSVKGRFTISRDNSHNTLYLQMNSLRPEDTALYYCTIGGSLSRSSQGTLVTVSS |
|  |  |  | 6.42 nM | 0.00226 s⁻¹ | 353000 M⁻¹ s⁻¹ | T039400043 (VHH, Single lysine at 43; also called HIS6-ENLYFQS-5GS-HSA006A06(K64R, K75R, K83R)) VHH: EVQLVESGGGVVQPGGSLRLSCAASGFTFRSFGMSWVRQAPGKGPEWVSSISGSGSDTLYADSVRGRFTISRDNSRNTLYLQMNSLRPEDTALYYCTIGGSLSRSSQGTLVTVSS |
| 1.11 nM | 0.00112 s⁻¹ | 1.01e+06 M⁻¹ s⁻¹ |  |  |  | T028501834 (VHH, K64R vs precursor T028501805; also called HSA006A06(K64R, K83R)) VHH: EVQLVESGGGVVQPGGSLRLSCAASGFTFRSFGMSWVRQAPGKGPEWVSSISGSGSDTLYADSVRGRFTISRDNSKNTLYLQMNSLRPEDTALYYCTIGGSLSRSSQGTLVTVSS |
| 2.06 nM | 0.00108 s⁻¹ | 524000 M⁻¹ s⁻¹ |  |  |  | T028501835 (VHH, K64A vs precursor T028501805; also called HSA006A06(K64A, K83R)) VHH: EVQLVESGGGVVQPGGSLRLSCAASGFTFRSFGMSWVRQAPGKGPEWVSSISGSGSDTLYADSVAGRFTISRDNSKNTLYLQMNSLRPEDTALYYCTIGGSLSRSSQGTLVTVSS |
|  |  |  | 8.01 nM | 0.00232 s⁻¹ | 289000 M⁻¹ s⁻¹ | T039400041 (VHH, Single lysine at 64; also called HIS6-ENLYFQS-5GS-HSA006A06(K43R, K75R, K83R)) VHH: EVQLVESGGGVVQPGGSLRLSCAASGFTFRSFGMSWVRQAPGRGPEWVSSISGSGSDTLYADSVKGRFTISRDNSRNTLYLQMNSLRPEDTALYYCTIGGSLSRSSQGTLVTVSS |
| 1.29 nM | 0.000906 s⁻¹ | 703000 M⁻¹ s⁻¹ |  |  |  | T028501833 (VHH, K43R vs precursor T028501805; also called HSA006A06(K43R, K83R)) VHH: EVQLVESGGGVVQPGGSLRLSCAASGFTFRSFGMSWVRQAPGRGPEWVSSISGSGSDTLYADSVKGRFTISRDNSKNTLYLQMNSLRPEDTALYYCTIGGSLSRSSQGTLVTVSS |

Further lines, the binder ahead of its results:

| Binder | Kd (human serum albumin [1]) | koff (human serum albumin [1]) | kon (human serum albumin [1]) | Kd (human serum albumin [2]) | koff (human serum albumin [2]) | kon (human serum albumin [2]) |
| --- | --- | --- | --- | --- | --- | --- |
| T028501806 (VHH, K43E vs precursor T028501805; also called HSA006A06(K43E, K83R)) VHH: EVQLVESGGGVVQPGGSLRLSCAASGFTFRSFGMSWVRQAPGEGPEWVSSISGSGSDTLYADSVKGRFTISRDNSKNTLYLQMNSLRPEDTALYYCTIGGSLSRSSQGTLVTVSS | 1.26 nM | 0.00108 s⁻¹ | 856000 M⁻¹ s⁻¹ |  |  |  |
| T028501808 (VHH, K43H vs precursor T028501805; also called HSA006A06(K43H, K83R)) VHH: EVQLVESGGGVVQPGGSLRLSCAASGFTFRSFGMSWVRQAPGHGPEWVSSISGSGSDTLYADSVKGRFTISRDNSKNTLYLQMNSLRPEDTALYYCTIGGSLSRSSQGTLVTVSS | 1.4 nM | 0.00102 s⁻¹ | 728000 M⁻¹ s⁻¹ |  |  |  |
| T028501812 (VHH, K64H vs precursor T028501805; also called HSA006A06(K64H, K83R)) VHH: EVQLVESGGGVVQPGGSLRLSCAASGFTFRSFGMSWVRQAPGKGPEWVSSISGSGSDTLYADSVHGRFTISRDNSKNTLYLQMNSLRPEDTALYYCTIGGSLSRSSQGTLVTVSS | 1.74 nM | 0.00102 s⁻¹ | 590000 M⁻¹ s⁻¹ |  |  |  |
| T028501807 (VHH, K43Q vs precursor T028501805; also called HSA006A06(K43Q, K83R)) VHH: EVQLVESGGGVVQPGGSLRLSCAASGFTFRSFGMSWVRQAPGQGPEWVSSISGSGSDTLYADSVKGRFTISRDNSKNTLYLQMNSLRPEDTALYYCTIGGSLSRSSQGTLVTVSS | 1.76 nM | 0.00119 s⁻¹ | 677000 M⁻¹ s⁻¹ |  |  |  |
| T028501809 (VHH, K43A vs precursor T028501805; also called HSA006A06(K43A, K83R)) VHH: EVQLVESGGGVVQPGGSLRLSCAASGFTFRSFGMSWVRQAPGAGPEWVSSISGSGSDTLYADSVKGRFTISRDNSKNTLYLQMNSLRPEDTALYYCTIGGSLSRSSQGTLVTVSS | 1.13 nM | 0.000872 s⁻¹ | 769000 M⁻¹ s⁻¹ |  |  |  |
| T028501816 (VHH, K75A vs precursor T028501805; also called HSA006A06(K75A, K83R)) VHH: EVQLVESGGGVVQPGGSLRLSCAASGFTFRSFGMSWVRQAPGKGPEWVSSISGSGSDTLYADSVKGRFTISRDNSANTLYLQMNSLRPEDTALYYCTIGGSLSRSSQGTLVTVSS | 1.31 nM | 0.00105 s⁻¹ | 799000 M⁻¹ s⁻¹ |  |  |  |
